Laboratory results reported in the supplement of paper PMC10724198.
± gives the standard deviation of the averaged measurements.

Key:
[1] = test system: Saccharomyces cerevisiae; experiment: protein stability index of tFT-peptide fusion (C-terminal peptide) (PSI (0-1 scale)); higher = more stable (slower turnover); conditions: genetic background: wild type; temperature: 30 C
[2] = test system: Saccharomyces cerevisiae; experiment: as above
Procedure: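 MPS profiling in S. cerevisiae of the tFT-X12 degron library: putative degron peptides plus stable controls, 12 aa, fused to the C-terminus of a sfGFP-mCherry timer. Cells are FACS-sorted into 8 mCherry/sfGFP bins and deep-sequenced. PSI runs from 0 (unstable) to 1 (stable). Backgrounds are wild type, das1Δ and doa10Δ at 30 °C, and wild type, das1Δ, cdc34-1 and cdc53-1 at 37 °C; 2-3 technical replicates each.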

[3] = genetic background: cdc34-1, temperature: 37 C
[4] = genetic background: cdc53-1, temperature: 37 C
[5] = genetic background: das1 deletion, temperature: 30 C
[6] = genetic background: das1 deletion, temperature: 37 C
[7] = genetic background: doa10 deletion, temperature: 30 C
[8] = genetic background: wild type, temperature: 30 C
[9] = genetic background: wild type, temperature: 37 C
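Note: PSI is a weighted mean of sequencing reads over stability bins, variants kept only with over 10 reads, mCherry proximal and sfGFP distal, peptide attached via GGGS linker.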

Sequence	protein stability index [1]	protein stability index [2, 3]	protein stability index [2, 4]	protein stability index [2, 5]	protein stability index [2, 6]	protein stability index [2, 7]	protein stability index [2, 8]	protein stability index [2, 9]
FLASLCFFPLLC	0.456 ± 0.014	0.388 ± 0.041	0.413 ± 0.031	0.42 ± 0.027	0.5574 ± 0.0039	0.496 ± 0.024	0.372 ± 0.02	0.5038 ± 0.0034
FLAWSVGILCRV	0.317 ± 0.018	0.228 ± 0.023	0.225 ± 0.022	0.238 ± 0.036	0.351 ± 0.011	0.213 ± 0.0026	0.224 ± 0.041	0.318 ± 0.023
FLCLFFLAVIKL	0.383 ± 0.028	0.241 ± 0.018	0.188 ± 0.012	0.344 ± 0.034	0.412 ± 0.031	0.502 ± 0.007	0.309 ± 0.037	0.356 ± 0.013
FLFLLLFLLLCC	0.407 ± 0.0033	0.467 ± 0.0069	0.488 ± 0.0017	0.377 ± 0.03	0.534 ± 0.049	0.349 ± 0.011	0.318 ± 0.033	0.4634 ± 0.00047
FLFPFLSVLFLL	0.245 ± 0.034	0.477 ± 0.014	0.506 ± 0.0071	0.479 ± 0.03	0.5591 ± 0.0049	0.176 ± 0.0088	0.176 ± 0.0083	0.232 ± 0.014
FLFSVVFFFFSL	0.421 ± 0.066	0.368 ± 0.028	0.4558 ± 0.0032	0.353 ± 0.021	0.5154 ± 0.003	0.322 ± 0.011	0.35 ± 0.025	0.4586 ± 0.0045
FLLEVFVLGRTL	0.4742 ± 0.0019	0.627 ± 0.0076	0.653 ± 0.023	0.43 ± 0.018	0.597 ± 0.0081	0.402 ± 0.032	0.432 ± 0.022	0.577 ± 0.012
FLLFSFFFFFFF	0.482 ± 0.011	0.44531 ± 9.3e-05	0.4388 ± 0.0028	0.409 ± 0.041	0.52 ± 0.013	0.489 ± 0.037	0.384 ± 0.021	0.488 ± 0.008
FLLPILSSSPVL	0.727 ± 0.035	0.692 ± 0.063	0.742 ± 0.019	0.657 ± 0.011	0.735 ± 0.012	0.685 ± 0.019	0.667 ± 0.025	0.6913 ± 0.0023
FLRLSFLIFPLH	0.498 ± 0.02	0.546 ± 0.029	0.6295 ± 0.00058	0.471 ± 0.03	0.583 ± 0.0021	0.396 ± 0.026	0.409 ± 0.023	0.546 ± 0.029
FLSCSRRPLRCW	0.463 ± 0.027	0.40972 ± 0.00036	0.445 ± 0.048	0.303 ± 0.035	0.4962 ± 0.00098	0.273 ± 0.0051	0.301 ± 0.032	0.469 ± 0.021
FMPFSLLALFVW	0.343 ± 0.017	0.286 ± 0.00069	0.318 ± 0.0033	0.267 ± 0.02	0.372 ± 0.0064	0.2321 ± 0.0021	0.241 ± 0.041	0.328 ± 0.0069
FNLTCLLISFFN	0.519 ± 0.045	0.593 ± 0.02	0.609 ± 0.063	0.453 ± 0.036	0.658 ± 0.0081	0.368 ± 0.005	0.417 ± 0.015	0.553 ± 0.028
FPCIFFFCLFIL	0.271 ± 0.05	0.209 ± 0.039	0.197 ± 0.0039	0.251 ± 0.027	0.337 ± 0.025	0.31 ± 0.013	0.203 ± 0.021	0.276 ± 0.016
FPLGMFWVCFFV	0.264 ± 0.015	0.423 ± 0.026	0.464 ± 0.0058	0.357 ± 0.03	0.512 ± 0.025	0.181 ± 0.015	0.207 ± 0.023	0.357 ± 0.015
FPYARHLSVLLL	0.472 ± 0.029	0.598 ± 0.04	0.662 ± 0.02	0.564 ± 0.018	0.681 ± 0.022	0.371 ± 0.0079	0.392 ± 0.025	0.54 ± 0.007
FRFSCLFSLFLS	0.224 ± 0.011	0.413 ± 0.072	0.499 ± 0.01	0.478 ± 0.029	0.5168 ± 0.0051	0.169 ± 0.0091	0.143 ± 0.036	0.24 ± 0.025
FRLFSLWFCWVR	0.348 ± 0.015	0.13 ± 0.0073	0.0999 ± 0.022	0.227 ± 0.025	0.297 ± 0.014	0.365 ± 0.013	0.212 ± 0.034	0.26 ± 0.025
FRVSAFFLPFLS	0.4 ± 0.013	0.652 ± 0.031	0.715 ± 0.008	0.655 ± 0.022	0.735 ± 0.015	0.226 ± 0.011	0.246 ± 0.022	0.486 ± 0.048
FSFLLYASLVTH	0.314 ± 0.015	0.298 ± 0.016	0.343 ± 0.032	0.307 ± 0.021	0.333 ± 0.021	0.322 ± 0.0038	0.297 ± 0.013	0.3145 ± 0.00081

Sequence	protein stability index [1]	protein stability index [2, 3]	protein stability index [2, 4]	protein stability index [2, 5]	protein stability index [2, 6]	protein stability index [2, 7]	protein stability index [2, 8]	protein stability index [2, 9]
FSGFPLTLSPPL	0.7224 ± 0.0042	0.717 ± 0.029	0.7715 ± 0.0044	0.67 ± 0.024	0.753 ± 0.013	0.685 ± 0.0098	0.679 ± 0.019	0.73 ± 0.018
FSVLLLANFCFF	0.482 ± 0.0056	0.498 ± 0.031	0.516 ± 0.0072	0.409 ± 0.037	0.554 ± 0.015	0.363 ± 0.016	0.407 ± 0.043	0.528 ± 0.015
FSVLRLVIVSLL	0.0995 ± 0.012	0.227 ± 0.012	0.503 ± 0.067	0.35 ± 0.037	0.537 ± 0.019	0.0564 ± 0.004	0.0846 ± 0.04	0.0783 ± 0.029
FSVSYFRLVRLC	0.0191 ± 0.027	0.39 ± 0.017	0.572 ± 0.0077	0.458 ± 0.032	0.602 ± 0.0083	0.0722 ± 0.003	0.0819 ± 0.038	0.08731 ± 0.00027
FTNLDYTKEKNN	0.29 ± 0.017	0.423 ± 0.15	0.6798 ± 0.0014	0.623 ± 0.052	0.708 ± 0.042	0.134 ± 0.012	0.146 ± 0.025	0.178 ± 0.0045
FVIVSSCIGYAL	0.499 ± 0.015	0.603 ± 0.039	0.641 ± 0.036	0.451 ± 0.028	0.584 ± 0.0076	0.4365 ± 0.0039	0.46 ± 0.025	0.561 ± 0.032
FVLLSVCFFGCL	0.442 ± 0.024	0.306 ± 0.011	0.4219 ± 0.0028	0.336 ± 0.024	0.495 ± 0.017	0.301 ± 0.0069	0.327 ± 0.004	0.438 ± 0.044
FVMLSFLVSSLP	0.4255 ± 0.0037	0.404 ± 0.006	0.489 ± 0.039	0.346 ± 0.028	0.513 ± 0.006	0.3038 ± 0.0018	0.34 ± 0.017	0.495 ± 0.0055
FVMTYCLMSVSK	0.0465 ± 0.035	0.0323 ± 0.018	0.0364 ± 0.002	0.0746 ± 0.02	0.0531 ± 0.038	0.063 ± 0.0057	0.07 ± 0.016	0.0478 ± 0.025
FVRSVFFCVSVG	0.469 ± 0.057	0.498 ± 0.037	0.531 ± 0.017	0.396 ± 0.029	0.548 ± 0.019	0.34 ± 0.012	0.373 ± 0.027	0.5 ± 0.018
FVWAVGLVSASV	0.503 ± 0.01	0.507 ± 0.0064	0.527 ± 0.0082	0.402 ± 0.022	0.561 ± 0.0067	0.379 ± 0.013	0.414 ± 0.03	0.52 ± 0.0091
FWLFAFVIRKHI	0.2057 ± 0.00034	0.286 ± 0.019	0.404 ± 0.013	0.324 ± 0.033	0.511 ± 0.007	0.10098 ± 0.0001	0.089 ± 0.0045	0.0641 ± 0.012
FYSLYLSLVCFN	0.224 ± 0.0011	0.345 ± 0.015	0.389 ± 0.0083	0.301 ± 0.034	0.454 ± 0.0076	0.161 ± 0.01	0.127 ± 0.016	0.256 ± 0.014
GAVKCLVCLAVW	0.404 ± 0.022	0.282 ± 0.0035	0.365 ± 0.054	0.309 ± 0.032	0.4138 ± 0.0017	0.26 ± 0.011	0.3 ± 0.026	0.3844 ± 0.00071
GCGFSFFHIVVL	0.121 ± 0.0051	0.111 ± 0.0053	0.113 ± 0.0037	0.147 ± 0.04	0.256 ± 0.024	0.416 ± 0.0071	0.152 ± 0.022	0.225 ± 0.0047
GCLFMQVSLFWR	0.286 ± 0.028	0.0959 ± 0.027	0.164 ± 0.018	0.147 ± 0.038	0.295 ± 0.023	0.177 ± 0.0049	0.138 ± 0.044	0.26 ± 0.017
GDINRNTRYLEK	0.556 ± 0.18	0.6705 ± 0.0048	0.7508 ± 0.0049	0.648 ± 0.029	0.698 ± 0.0092	0.649 ± 0.0063	0.6339 ± 0.0032	0.702 ± 0.024
GFGRRGQFGGTG	0.574 ± 0.14	0.86 ± 0.079	0.863 ± 0.016	0.607 ± 0.019	0.801 ± 0.048	0.542 ± 0.039	0.567 ± 0.04	0.835 ± 0.059
GFRVTTCASWIC	0.177 ± 0.02	0.557 ± 0.016	0.734 ± 0.011	0.612 ± 0.015	0.729 ± 0.015	0.143 ± 0.012	0.15 ± 0.027	0.191 ± 0.012
